The source of these data is patent US20240084003A1 (SIMCERE ZAIMING PHARMACEUTICAL, published 2024).

Test [1] deals with T1, human CD22-ECD-His protein (human, UniProt P20273 20-687).
T1 construct: Made in house in HEK293E; also called hCD22-ECD-His; recombinant human CD22-ECD His protein; not shown: His tag
T1 sequence: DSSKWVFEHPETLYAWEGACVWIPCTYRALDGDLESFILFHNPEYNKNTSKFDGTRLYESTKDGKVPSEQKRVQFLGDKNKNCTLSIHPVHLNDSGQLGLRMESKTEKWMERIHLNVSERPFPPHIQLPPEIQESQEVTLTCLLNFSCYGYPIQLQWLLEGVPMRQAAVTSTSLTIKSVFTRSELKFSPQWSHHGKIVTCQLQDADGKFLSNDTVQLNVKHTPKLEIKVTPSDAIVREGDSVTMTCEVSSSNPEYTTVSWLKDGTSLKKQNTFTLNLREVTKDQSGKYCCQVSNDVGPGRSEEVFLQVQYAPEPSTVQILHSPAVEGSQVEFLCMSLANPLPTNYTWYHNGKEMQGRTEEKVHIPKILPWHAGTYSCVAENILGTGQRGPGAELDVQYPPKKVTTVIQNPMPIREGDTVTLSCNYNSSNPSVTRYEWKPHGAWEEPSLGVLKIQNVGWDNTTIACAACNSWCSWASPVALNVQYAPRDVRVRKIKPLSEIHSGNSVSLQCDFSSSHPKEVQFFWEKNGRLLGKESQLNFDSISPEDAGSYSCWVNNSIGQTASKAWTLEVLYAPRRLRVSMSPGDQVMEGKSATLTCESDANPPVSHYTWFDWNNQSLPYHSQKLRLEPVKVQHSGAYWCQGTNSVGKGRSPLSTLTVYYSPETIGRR
In words: ELISA, Ab 100.00 nM. In outline: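 Binding of chimeric anti-CD22 antibodies was detected by indirect ELISA on CD22-ECD-His coated at 2 μg/mL, with HRP secondary and TMB substrate.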

The target in test [2] is T2, murine CD22 protein (ACROBiosystems, SI2-M52Ha) (murine, UniProt P35329 22-708).
T2 construct: extracellular domain; also called murine CD22-ECD; murine CD22-ECD-His
T2 sequence (looked up): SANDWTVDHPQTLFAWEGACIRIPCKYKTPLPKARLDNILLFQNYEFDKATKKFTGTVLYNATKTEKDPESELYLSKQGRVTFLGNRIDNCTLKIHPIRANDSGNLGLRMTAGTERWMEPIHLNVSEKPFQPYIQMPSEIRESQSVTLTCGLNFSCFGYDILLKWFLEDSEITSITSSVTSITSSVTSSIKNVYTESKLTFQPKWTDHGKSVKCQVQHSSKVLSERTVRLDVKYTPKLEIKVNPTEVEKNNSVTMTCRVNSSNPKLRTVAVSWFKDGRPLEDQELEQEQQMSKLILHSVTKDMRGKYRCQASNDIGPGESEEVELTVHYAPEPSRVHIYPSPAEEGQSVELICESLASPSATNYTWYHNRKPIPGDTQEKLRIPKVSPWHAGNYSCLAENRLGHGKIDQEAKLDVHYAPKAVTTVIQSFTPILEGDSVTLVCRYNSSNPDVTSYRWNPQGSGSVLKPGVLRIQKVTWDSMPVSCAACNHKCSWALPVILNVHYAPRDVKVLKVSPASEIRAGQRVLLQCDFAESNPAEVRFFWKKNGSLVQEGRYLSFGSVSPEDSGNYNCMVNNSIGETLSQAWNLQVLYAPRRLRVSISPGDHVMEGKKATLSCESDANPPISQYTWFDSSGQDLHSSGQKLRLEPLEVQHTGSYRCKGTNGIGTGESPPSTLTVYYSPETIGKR
The experiment in a line: ELISA, murine CD22-ECD-His coated. In outline: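 Read-out is TMB absorbance after a 30 min room-temperature development stopped with 1.0 N HCl. It reflects chimeric antibody bound to plate-coated CD22 (2 μg/mL), detected with an HRP-labelled secondary antibody. Antibody and secondary incubations each ran 2 h at 37° C.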

A further test deals with T3, human CD22 domain5-7-His (human, UniProt P20273 414-687).
T3 construct: also called hCD22 domain5-7-His; not shown: His tag
T3 sequence: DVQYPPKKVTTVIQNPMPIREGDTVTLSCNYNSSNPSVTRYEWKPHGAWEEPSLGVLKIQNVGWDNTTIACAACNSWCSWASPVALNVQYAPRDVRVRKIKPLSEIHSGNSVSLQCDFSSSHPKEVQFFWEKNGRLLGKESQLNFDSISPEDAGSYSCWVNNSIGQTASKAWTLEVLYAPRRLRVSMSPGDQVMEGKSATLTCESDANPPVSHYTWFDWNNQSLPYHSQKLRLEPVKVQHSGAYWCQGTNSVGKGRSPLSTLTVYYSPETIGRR
In words: ELISA, human CD22 domain5-7-His coated. In general terms: An ELISA detects its analyte on a solid surface through an enzyme-linked reagent.

B1: F1.245.2 (antibody, human IgG1, kappa, V domains shown)
VH: EVQLQQSGAELVKPGASVKLSCTGSGFNIKDYYIHWVKQRTEQGLEWMGRIDPEDGETEYAPKFQDEATITSDTSSNTAYLQLSSLTYEDTAVYYCAREAAGYFYRGSSYGYFDVWGTGTTVTVSS
VL: DFQMTQTTSFLSASLGDRVTISCSASQDISNYLNWYQQKPDGTVKLLIYYTSSLHSGVPSRFSGSGSGTDYSLTISNLEPEDIATYYCQQYSMLPYTFGGGTKLEMER
notes: Human-murine chimeric IgG1, kappa
In turn, B1 displayed an OD450 in test [1] of 2.7 OD450. The binding result (in test [2]; with human CD22 domain5-7-His) was “no binding (tested: 100 nM)” each time.

B2: F2.70.2 (antibody, human IgG1, lambda, V domains shown)
VH: EVQLVESGGGLVKPGGSLKLSCAASGFTFSDYGMNWFRQAPEKGLEWVAYISRGSHTIYYADTVKGRFTISRDNAKNTLFLQMTSLRSNDTAMYYCVRMAGYYAMDYWGQGTSVTVSS
VL: QLVLTQSSSASFSLGASAKLTCTLSSQHSSYIIEWYQQQPLKPPKYVMELKKDGSHSTGDGIPDRFSGSSSGADRYLSISNIQPEDEAIYICGVGDTIKEQFVYVFGGGTKVTVLG
notes: Human-murine chimeric IgG1, lambda
As to B2, the OD450 in test [1] worked out at 2.24 OD450. Also, the binding result (in test [2]; with human CD22 domain5-7-His) was “no binding (tested: 100 nM)” in each case.

B3: F2.104.10 (antibody, human IgG1, lambda, V domains shown)
VH: EVQLVESGGGFVKPGGSLKLSCAASGFTFSDYGMNWFRQAPEKGLEWVAYISRGSHTIYYADTVKGRFTISRDNAENTLFLQMTSLRSNDTAMYYCVRMAGYYAMDYWGQGTSLTVSS
VL: QLVLTQSSSASFSLGASAKLTCTLSSQHSSYIIEWYQQQPLKPPKYVMEVKKDGSHSTGDGIPDRFSGSSSGADRYLSISNIQSEDEAIYICGVGDTIKEQFVYVFGGGTKVTVLG
notes: as for B2
The molecule B3 yielded an OD450 in test [1] of 2.44 OD450. The binding result (in test [2]; in the test with human CD22 domain5-7-His) was “no binding (tested: 100 nM)” in each case.

B4: F1.257.3 (antibody, human IgG1, kappa, V domains shown)
VH: QVQLQQSGPELARPGASVKLSCKASGYTFTSYGISWVKQRTGQDLEWIGEIYPKLGTTYYNEKFKDKATLTTDRSSSTAYMALRSLTSEDSAVYFCACPHYYATRGGDYWGQGTTLTVSS
VL: EIVLTQSPATLSVTPGDSVTFSCRASQSISNHLHWYQQKSHESPRLLIRYASQSISGIPSRFSGSGSGTDFTLSLSSVETEDFGVYFCQQSHSWPYTFGGGTKLEIAR
notes: as for B1
In test [1], B4 registered an OD450 of 2.83 OD450. Besides, the binding result (in test [2]; with human CD22 domain5-7-His) was “no binding (tested: 100 nM)” each time.

B5: F2.343.16 (antibody, human IgG1, lambda, V domains shown)
VH: QVQLKQSGPGLVQPSQSLSITCTVSGFSLTGYGVQWVRQSPGKGLEWLGVIWGGGGTDYNAAFISRLNIIKDNSKSQVFFKMNSLQADDTAIYYCARYSKYGHFDVWGTGTAVTVSS
VL: QAVVTQESALTTSPGETVTLTCRSSTGAVTTSNYANWVQEKPDHLFTGLIGGTYNRVPGVPARFSGSLIGDKAALTITGAQTEDEAIYFCALWYSNHFWVFGGGTKLTVLG
notes: as for B2
In the case of B5, the OD450 in test [1] was found to be 1.94 OD450. Further, the binding result (in test [2]; in the test with human CD22 domain5-7-His) was “no binding (tested: 100 nM)” in each case.

B6: F1.60.9 (antibody, human IgG1, kappa, V domains shown)
VH: QVQLKESGPGLVAPSQSLSITCTVSGLSLNNYGVSWVRQPPGKGLEWLGVIWGDGSTNYHSALISRLSISKDNSKSQVFLKLNSLHTDDTATYYCAINWGDYWGQGTTLIVSS
VL: DIKMTQSPSSMNASLGERVTITCKASQDINSYLSWFQQKPGKSPKILIYRANRLIDGVPSRFSGSGSGQDYSLTISSLEYEDMGIYYCLQYGVFPLTFGAGTKLELKR
notes: as for B1
A word on the EC50 (read off the curve): it is the concentration giving half of the maximal effect. Consider B6, for which the OD450 in test [1] was found to be 2.82 OD450. For the same molecule, in test [2], the binding result is given as “no binding (tested: 100 nM)”. Also, the half-maximal effective concentration (EC50 (read off the curve)) with human CD22 domain5-7-His is approximately 0.1 nM.
